Reference: the DeepSol protein solubility set

Experiment: soluble on expression in E. coli; label from the status in PepcDB or PDB records
For “MSDLQKLIQGKIKTIAFAHDSTRVIQCFIQYGNEEQRKQAFQELQGDLVELSKAKYSRNIVKKFLMYGSKPQAAEIIRSFKGHVRKMLRHSEASAIVEYAYNDKAILEQRNMLTEELYGNTFQLYKSADHPTLDKVLELQPAKLELIMDEMKQVLTPMAQKEAVIKHSLVHKVFLDFFTYAPPKPRSELIEAIREAVVYLAHTHDGARVAMHCLWHGTPKDRKVIVKTMKTYVERVANVSAARARFLKSD”, the “soluble on expression in E. coli” value was “not soluble”. With “MSDLSSSLCQLNWLIAKGGLNTVQEIEVPENPNIVGSPVAPAHEGKRRRIFDGADKPPYSYSQLIRLAIEDTPDKKCTLAEIYSFIAHNFQFYRENRNSSWKNSIRHNLSLNKQFSRIEKTDGDRRGWWVCVDPPAKKPRILKGSPVRVNPIYEHLYHNKQDMPNFTPPPEDPFLSEINGNVHELTEHEIRDLNLFESYDLNSSFRDVYNQIFEKSTSPNGKKQAAQIDWLKISLEAAGLDYHDEQELQEVDTDKLKDYVYNGFPAECDSDVSTPRTDSGRHSSSDSVLSATLQPVNNDSDDEYDWDKLL” the “soluble on expression in E. coli” value was “not soluble”. For “MSDNYKFFRHDNCEYFPCHKVKDKETFNCLFCYCPLYFLENCGGNKSDFNGVKDCSNCLIPHSKNGYDYIINKIREVNKEKRAKNNLTLEHHHHHH”, the “soluble on expression in E. coli” value was “soluble”. In the case of “MSDRGRTLMVQGTTSDAGKSTLVTALCRWLARRGVAVVPFKPQNMALNSAVTADGGEIGRAQAVQAQACRLAPHTDMNPVLLKPNTDIGAQVIIHGRAVTSMDAAAYHDYKRVAMEAVLASHGRLAAAYRVVMVEGAGSPAEINLRANDIANMGFAEAVDCPVILVADIDRGGVFAHLVGTLELLSDSERERVKGFVINRFRGDIALLQPGLDWLEARTGKPVLGVLPYVSDLHLEAEDAIDTRQAAKVGPRLKVVVPVLPRISNHTDFDPLRLHPQVELSFVGPGQALPSADLIVLPGSKSVRADLAALRERGWDEAILRHLRYGGRLLGICGGLQMLGERLHDPLGLEGAAGSSAGLGLLALETTLEADKQLRNVQGRLSLEDAPLSGYEIHAGVTRGEALARPAVVLDDGRADGARSVDGNVMGTYLHGLFESTAACSALLRWAGLREVQAVDYQALRERDIERLADLVERHLDTGRLLALCGEPH”, the “soluble on expression in E. coli” value is reported as “not soluble”. For “MSDVENASLPPAIFIMGPTASGKTALAMTLREYLPVELISVDSALIYKDMDIGTAKPSADELARAPHRLIDILDPTESYSAADFRRDALREMADITAAGRIPLLVGGTMLYFKALLEGLSPLPPADAAVRQRIEEQAKEIGWEAMHRQLSEIDPTAAIRIHPNDPQRLSRALEVFFISGNTLTELTKTSGDALPYQVHQFAIAPAMRELLHQRIEQRFHQMLAAGFETEARALFARHDLHTDMPSIRCVGYRQMWSYLSGEIDYDEMVYRGVCATRQLAKRQMTWLRGWDDVCWLDSENPTEALDKVIQVVSALEHHHHHH”, the “soluble on expression in E. coli” value was “soluble”. With “MSDWNPSLYLHFAAERSRPAVELLARVPLENVDYVADLGCGPGNSTALLHQRWPAARITGIDSSPAMIAEARSALPDCQFVEADIRNWQPEQALDLIFANASLQWLPDHYELFPHLVSLLNPQGVLAVQMPDNWLEPTHVLMREVAWEQNYPDRGRESLAGVHAYYDILSEAGCEVDIWRTTYYHQMPSHQAIIDWVTATGLRPWLQDLTESEQQLFLTRYHQMLKEQYPLQENGQILLAFPRLFIVARRTE” the “soluble on expression in E. coli” value was “soluble”. For “MSEAEARPTNFIRQIIDEDLASGKHTTVHTRFPPEPNGYLHIGHAKSICLNFGIAQDYKGQCNLRFDDTNPVKEDIEYVESIKNDVEWLGFHWSGNVRYSSDYFDQLHAYAIELINKGLAYVDELTPEQIREYRGTLTQPGKNSPYRDRSVEENLALFEKMRAGGFEEGKACLRAKIDMASPFIVMRDPVLYRIKFAEHHQTGNKWCIYPMYDFTHCISDALEGITHSLRTLEFQDNRRLYDWVLDNITIPVHPRQYEFSRLNLEYTVMSKRKLNLLVTDKHVEGWDDPRMPTISGLRRRGYTAASIREFCKRIGVTKQDNTIEMASLESCIREDLNENAPRAMAVIDPVKLVIENYQGEGEMVTMPNHPNKPEMGSRQVPFSGEIWIDRADFREEANKQYKRLVLGKEVRLRNAYVIKAERVEKDAEGNITTIFCTYDADTLSKDPADGRKVKGVIHWVSAAHALPVEIRLYDRLFSVPNPGAADDFLSVINPESLVIKQGFAEPSLKDAVAGKAFQFEREGYFCLDSRHSTAEKPVFNRTVGLRDTLEHHHHHH”, the “soluble on expression in E. coli” value was “soluble”. With “MSEANSNSEFQTFIEQENQKAAIQAAISKLTETCWDKCVGKPGSKLDRAESECIANCAERFLDSSSFIMQRLMKKQ” the “soluble on expression in E. coli” value was “soluble”. For “MSECLMFGMDCEARCMTSMTADEENICFLVGTNNIKNDKNQVNKLFMDPEASRLMSKTFRHPAGEVRAIAAHPTKSTILATCTADFSSLGGTHSITIWNIEEDKRTLETVSRLPTEQVMSCLEWEPNSMKCAAMTPFRPEIQLLNMENGPEIVQNLKIPLENEEDEMFSATWSPHHDGNMLGVTGGRTAWCIDCRTDNEYLKIRDAHIHRTISMDFNPNLQHVIATCGDDGYVRIWDTRSTSSALTSLHPHAHWVWSVRFHPVHDQLLLTGGSDASVVLSCAQSVSSEQQIEFRDDEEEEEDDDLVEKLQDGQLERIDEHEDSVYACAWSSADPWTFASLSYDGRMIVSNVSRKHKYALMQL”, the “soluble on expression in E. coli” value was “not soluble”. In the case of “MSEDGGVTTDERACAAPLQLSNTFPRVSRHAVQTGLSPHPRVRNVIAVGSGKGGVGKSTIAVNLAVALQRTGVRVGLLDADIYGPSVPAMLGLSGRPESPDNKLIEPLRAFGIEAMSIGLLIDVDTPMIWRGPMATSALTQLFNDTLWGDLDYLLIDLPPGTGDIQLTLSQKIPVAGAVIVTTPQDIATLDARKALKMFEKVNVPVLGIVENMAMHCCRQCGHVEHLFGEGGAQRMAEHYHVPLLGSLPLDIVIREHGDLGQPITVAAPKGSVGQAYAAVAACLAAELAKRPRAAIPMTTTLGLEHHHHHH”, the “soluble on expression in E. coli” value is reported as “not soluble”. In the case of “MSEEHIAVTRFREYLRVNTEQPNPDYVACRDFLFKYADEVGIERKAVETAPGVYFVIMTIPGSQPELPSIMLYSHTDVVPTFREHWTHDPYSAFKDEDGNIFARGAQDTKCLGVQHVEAFRNLFAKGAKQWKRTIHVVWGPDEETGHINGMKGFVETNEFKKLNIGFSLDEGHASENGVYLTFYAERVTWWLKVTAPGNPGHGSQFMENTAMEKIERFLASARAFRNEQKELLEKNPTWALGDVTTLNVNILKGGVQFNVIPEKFEAYVDIRLTPNQDFGEIRAKLDQWVKDAGEGVTYEFSQHSDYKPVSPHTRDDPFWAAFEDSLKQENCEFTTEVCVGSTDSRFVRKAGVPAINFSPMINTPVRAHAHNEFLNEKVFLRGVEIFETLINNLGNV”, the “soluble on expression in E. coli” value is reported as “not soluble”. For “MSEEIKQEVKEEAPETTTEAKTEEAAPVAEVVAEVVTNGDKPAENGKTEEPSKYAETENYKKLIGLKMKPALADVVCEIYESGLLGPEDLDDRAVDIINSVNLDQAKFIFTEIKNSELFGVATKSLYVTSLIRSFKDRCRQQGAAAVTSGKLINGPELAALKNLLETTGYTIEVTIGQRKFGGPPPDWEGPATGPAGQGHEIYVGHIPTDVFEDTLVPLFEKSGKIWDLRLMMDPMSGASRGYAFVTYCNKEDAAAAAKTYDGHEISTGKPLKVNVSIANTRLFIGNIPKTKSKDEILEELKTHAEGVVDVIVYSVPDNEKIKNRGFCFVDFIDHKTASDIKRKIAQHKIRPFNADVYVDWAEHQEEPDEDTMSKVKVLYIRNIKEAVTEEKLNELFKEYASLDRVKKVKDYAFIHFNERDDCLKAMEEWNGKELEGTVVEASLAKPPQEKKKKPVMRGRGFGGAGGGAGNHGQRGGQRGGGQWGGNAGPGGYYPNHFNNGYDMPMPWGGGYGGDMGYGAYGGGYGGGYGGPGAYGDFGAYGGGGFRGGMRGSPRGGMGGGGGFRGGPPGRGGMANRRGRGKRPGDGRGGPASKRDNGKPDFSADVNMSTF”, the “soluble on expression in E. coli” value was “not soluble”. In the case of “MSEENITNVQENASDYNEDQIQVLEGLEAVRKRPGMYIGSTSQRGLHHLVWEIVDNAIDEALAGFCTEIEITIEADNSITVRDNGRGIPTGINEKIGRPTVEVIFTVLHAGGKFGGGGYKVSGGLHGVGASVVNALSTSLEVYVHREGQKYYQRFERGDVVMDMEEQGETDYRGTIVHFTPDPQIFTETTEFDFDTLRTRTRELAFLNRGLTISIEDKREEHKVRKDFHYEGGIRSYVEHLNKAKDVIHEPPIYLEGERDDIMVEISMQYNTGFSSNIISFANNIHTYEGGTHESGFKTALTRVINDYARRNKLFKDSDDNLSGEDVREGLTAIISIKHPDPQFEGQTKTKLGNSEARSITDKLFSEALNKFMMENPDVAKKIVEKGVVASRARLAAKRAREVARKSSGLEISSLPGKLADCSSRNPEISELYIVEGDSAGGSAKQGRDRLFQAILPIRGKILNVEKARLDRILANEEIRTIFTAMGTGFGGDFDVSKSRYHKLIIMTDADVDGAHIRTLLLTLFYRYMRPLLDAGYIYIAQPPLYQIKHGKQIEYVYSDGQLEDYLASLDGDTKYSIQRYKGLGEMNPEQLWDTTMNPEHRTLLQVNIKDAIDADETFEMLMGDRVEPRRKFIEDNAQYVKNLDV”, the “soluble on expression in E. coli” value is reported as “not soluble”. For “MSEGSGDQSQQRPWASPRQQPIKGIVQPRVLPPFGKPTRHTNKLDYIMTTVLKEAGKHKHVWPFQKPVDAVALCIPLYHERVARPMDLKTIENRLKSTYYTCAQECIDDIETVFQNCYTFNGKEDDVTIMAQNVHEVIKKSLEQAPREEHDMDVYWGKNKKKPAKSDGGSKSSSSKKNDARGPSEAPSEAGSEVSSVTTASAAAPTVSESASVAAKPERKVAGKKTGKRKAESEDDEKPEPLRAKREVAVVKKEVHQPLLPSMKPCLKLLNDFSTKKYQEFAWPFNEPVDAEQLGLHDYHKIIKEPMDLKSMKAKMESGAYKEPSDFEHDVRLMLRNCFLYNPVGDPVHSFGLRFQEVFDRRWAELGDSSSRASSVAPQSAPIAPTPKVAKSSAPKEPKESRKEHKKETTFEASGAKSEDLMQINNALSMIREREEKLKAELAAAQAIKDKLTSVKNRREDNPNEPFPEKLINETRALCTTQVGQNASSSSASSAALRNGRSKKAASARLYGYEFDSDDEDNKMALTYEEKRNLSNLINNLPNNQLNTIISIIQRRERSALMQQQLDDSEVELDFESLGDMCLREMGAFIKTIPTLNGNGDDEKPKTSSNPTSSGATGSKGSSSLESKNGKKKKNFNMSESSDDETSNSRKRRKRESSESQSSSSSDDDSDDEDRPSIPRKSGQPPSTSREWNQSSAPPPRMGGMGGQPPMSRVPASSSTSVSAIGKNNAAASSNSYRYRCFFVRKLNLKISNKKKWKSKKNSTNLVFRSSKTCTSTSTNIIKTSGSTETTVKTKENGRNQQRRLRLDHQRKANPGMVKTSRPGFRGCGWRQSEPAKKKTKAVSRCQTKWK”, the “soluble on expression in E. coli” value was “not soluble”. With “MSEKQINNFSLISRLFGNLFYRFPTDKVLADAFVWLQQEGLSQVWALDTDKESELALNSLQVKIDLNLLNEEYQKLFATNGKVMTAISAYGIDVEEFVNFRLVRNMPEVESADHFALLLLTASWLEDNSDSLVAQQEFFETFLLPCAAKFLTQVENQATLPFYRALALLTREILATMADELEEE” the “soluble on expression in E. coli” value was “soluble”. For “MSELDFVRRGQDLKAYRALNWEGSFADYLRLLKEDPRPLRTSFQRVHDMILAHGVEEYTRFKEKLLHYRFFDDPFEGGKDAVFGLDKPLMRLVATLKAAAHRLGPERRILLLHGPVGSAKSTIARLLKKGLEAYSRTEEGKLFTFYWKTEEGPLPCPMHEEPLHLLPQDLREAFLEELRALHPDYPYPLEVEGDLCPVCRFQMREGLRKYEGDLAALLEHEVVVKRLVLSEKDRVGIGTFQPKDEKNQDSTELTGDINYRKVALYGSDSDPRAFNFDGELNIANRGIVEFIEILKLDVAFLYDLLTASQEHKIKSKKFAQTDIDEIVLGHTNEPEYRKLQANEYMEALRDRTIKIDVPYILRVSDEVRIYQRDFAKVRGKHIAPHTLEMAATWAVLTRLEPPKRAGLTLMQKLKLYDGKLLPGWTEEAVRELMGEAKREGLEGISPRYIQDKISNVLVTSEEPCINPFMVMNELEEGLKHHSLISDERTRERYRALLQEVKAEYAEIVKNEVQRAIAADEEALNRLFHNYIDHVKAYVLGEKVKNPYTGAPEPPNERLMRSIEERIDIPESRKDDFRREIMNYIGALALEGKPFTYKDNDRLRRALELKLFDDQKDTIRLSALVSGVVDPETQAKIDVVKARLIRDYGYCEHCASGVLEFAASLFARS”, the “soluble on expression in E. coli” value was “soluble”.
